Experimental data: PMC3871196 (Experimental eye research, 2011)

Biological target: purified Ca/CaM from bovine brain (bovine, UniProt P62157 1-149)
Experiment: fluorescence polarisation

- Kd: 190 nM
B1: PP-C peptide (peptide)
chain: ETWKAFLESVKKLGKG
